Test results: patent US20220265759A1, “COMPOSITION AND METHOD FOR PROMOTING WOUND HEALING” (THE BOARD OF TRUSTEES OF THE UNIVERSITY OF ILLIOIS, priority 2019, published 2022)

What was measured:
eNOS-CCR10 interaction = molecular target: T1, eNOS-CCR10 interaction (Homo sapiens, UniProt P46092); assay: CCL28-induced eNOS-CCR10 interaction in HDMVECs; format: cell-based; details: 500 ng/ml
T1 construct: host or cells: HDMVEC (human dermal microvascular endothelial cells)
T1 sequence (P46092 1-362): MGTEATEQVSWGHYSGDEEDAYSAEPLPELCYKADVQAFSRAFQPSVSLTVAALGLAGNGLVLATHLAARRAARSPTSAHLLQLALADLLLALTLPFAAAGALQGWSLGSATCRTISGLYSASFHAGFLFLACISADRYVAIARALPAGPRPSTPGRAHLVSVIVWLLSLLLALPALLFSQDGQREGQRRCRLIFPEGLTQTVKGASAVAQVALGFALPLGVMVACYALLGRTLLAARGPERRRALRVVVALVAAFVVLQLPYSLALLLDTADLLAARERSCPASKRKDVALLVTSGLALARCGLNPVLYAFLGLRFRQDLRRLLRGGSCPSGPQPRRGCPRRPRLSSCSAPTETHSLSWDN
T1 sequence (P29474 2-1203 partner limits assumed): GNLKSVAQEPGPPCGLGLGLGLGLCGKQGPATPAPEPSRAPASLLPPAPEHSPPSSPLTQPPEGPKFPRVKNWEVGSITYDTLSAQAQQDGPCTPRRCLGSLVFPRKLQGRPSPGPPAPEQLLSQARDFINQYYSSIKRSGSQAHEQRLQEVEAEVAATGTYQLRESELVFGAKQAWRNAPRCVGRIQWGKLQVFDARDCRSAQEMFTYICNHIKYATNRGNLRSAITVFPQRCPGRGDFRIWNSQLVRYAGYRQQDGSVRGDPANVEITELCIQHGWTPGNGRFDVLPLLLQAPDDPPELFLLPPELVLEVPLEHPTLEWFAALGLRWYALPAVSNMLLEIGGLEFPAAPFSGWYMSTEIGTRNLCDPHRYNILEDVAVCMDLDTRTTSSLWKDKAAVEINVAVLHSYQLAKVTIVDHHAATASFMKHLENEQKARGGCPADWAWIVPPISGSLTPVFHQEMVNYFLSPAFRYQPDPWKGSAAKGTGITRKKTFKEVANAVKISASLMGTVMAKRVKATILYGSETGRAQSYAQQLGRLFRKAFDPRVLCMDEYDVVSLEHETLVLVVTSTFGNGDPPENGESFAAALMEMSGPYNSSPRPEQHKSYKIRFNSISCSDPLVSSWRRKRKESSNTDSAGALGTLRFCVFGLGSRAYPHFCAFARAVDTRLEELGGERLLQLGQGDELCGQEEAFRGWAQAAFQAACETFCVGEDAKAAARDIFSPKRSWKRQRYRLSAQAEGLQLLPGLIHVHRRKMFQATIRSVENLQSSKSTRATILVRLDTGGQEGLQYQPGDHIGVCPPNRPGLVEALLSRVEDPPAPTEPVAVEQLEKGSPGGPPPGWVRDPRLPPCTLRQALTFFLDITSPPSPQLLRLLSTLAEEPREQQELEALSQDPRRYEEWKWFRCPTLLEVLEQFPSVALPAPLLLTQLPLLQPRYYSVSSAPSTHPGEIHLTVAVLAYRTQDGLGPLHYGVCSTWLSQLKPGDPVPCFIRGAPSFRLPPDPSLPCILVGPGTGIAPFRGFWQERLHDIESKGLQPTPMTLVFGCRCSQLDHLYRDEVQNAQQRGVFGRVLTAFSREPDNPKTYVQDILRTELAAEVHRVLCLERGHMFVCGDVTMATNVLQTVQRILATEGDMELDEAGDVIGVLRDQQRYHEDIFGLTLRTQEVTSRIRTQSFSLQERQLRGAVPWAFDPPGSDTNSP
Excerpt: (§1) Co-IP Experiments, cells or mouse wounds were collected after treatment, and lysed in 2% ODG in Tris buffer. The homogenates were further prepared for Co-IP experiments as described in the art (Chen, et al. (2018) Mol. Biol. Cell 29(10):1190-1202; Chen, et al. (2020) FASEB J. 34(4):5838-5850; Chen, et al. (2015) Ann. Rheum. Dis. 74:1898-1906).
It has been shown that CCR10 is highly expressed in human umbilical vein endothelial cells (HUVECs) and human endothelial progenitor cells (EPCs) (Chen, et al. (2020) FASEB J. 34(4):5838-5850). In order to understand whether the CCL28/CCR10 signaling axis in dermal microvessels plays a role in wound healing, 500 ng/ml CCL28 was administrated to human dermal microvascular endothelial cells (HDMVECs). eNOS-CCR10 interaction increased with maximum binding observed at 5 minutes, similar to that observed in HUVEC (Chen, et al. (2020) FASEB J. 34(4):5838-5850). […] Upon stimulation with CCL28 for 5 minutes, CCR10 co-localized to a greater extent with eNOS on the plasma membrane.

[1] = test system: eNOS, p85 (PI3K), Src kinase, ERK (MAPK), β-catenin, Bcl-2; assay: Immunoblot of CCL28 signaling in endothelial cells; format: cell-based, human
Description: Immunoblot and Co-Immunoprecipitation (Co-IP). After serum starvation, inhibitors were added 45 minutes prior to stimulation for indicated times at 37° C., and cells were then collected and lysed for western blot analysis. After probing for p-eNOS (Ser1177), p-p85 (Tyr458), p-Src (Tyr 416), and p-ERK (T202/Y204), the same blots were stripped and re-probed for total proteins mentioned above. For detection of CCL28-induced protein levels of β-catenin and Bcl-2, near-confluent endothelial cells were incubated with 500 ng/ml CCL28 for 24 hours in EGM-2 medium containing 1% FBS.
(§2) NO production was also observed in HUVECs following treatment with 500 ng/ml human recombinant CCL28, the ligand for CCR10. The signaling pathways activated by CCL28 binding to CCR10 in endothelial cells were further investigated.
The role of CCL28/CCR10 signaling pathways was further investigated in angiogenesis. Pretreatment of cells with 10 μM wortmannin (PI3K inhibitor), 5 μM U0126 (MAPK/ERK inhibitor), 1 mM L-NAME (eNOS inhibitor), 10 μM PP2 (Src kinase inhibitor), and 10 μM STO-609 ([…]) reduced endothelial cell tube formation induced by 500 ng/ml CCL28. […]

CCR10-eNOS interaction = molecular target: T2, CCR10-eNOS interaction (Homo sapiens, UniProt P46092); assay: Ligand-induced CCR10-eNOS interaction in HUVEC (Co-IP, confocal co-localization); format: cell-based; details: plasma membrane ROI, stimulation for 5 minutes; untreated control cells 43%
T2 construct: host or cells: HUVEC (primary human umbilical vein endothelial cells)
T2 sequence (P46092 1-362): T1 sequence (P46092 1-362)
Description: as §1
Confocal Microscopy. For cellular immunostaining, confluent monolayers of cells grown on coverslips were prepared as described previously (Chen, et al. (2012) Mel. Biol. Cell 23(7):1388-1398). Fluorescent images were obtained using a Zeiss LSM 880 confocal microscope. The co-localization coefficient in specified regions of interest (ROI) were determined using Zeiss Zen software. Briefly, using the Overlay tool, the desired ROI was drawn along the cell edge and the values for the ROIs tabulated. […] The data from different treatment groups were collected and analyzed for statistical significance as described previously (Chen, et al. (2020) FASEB J. 34(4):5838-5850).
To investigate whether CCR10 interacts directly with eNOS, primary culture HUVEC were collected and prepared for co-immunoprecipitation (Co-IP) to assess CCR10-eNOS interaction following stimulation with 5 μM A23187. […] Co-localization coefficient in the regions of interest (ROI) in the plasma membrane were quantified from Zeiss LSM 880 confocal microscope images using Zeiss Zen software.

HUVECs = assay: NO production in HUVECs; format: cell-based, human; details: 500 ng/ml
Description: Nitric Oxide (NO) Measurement with DAF-FM Diacetate. Confluent HUVEC monolayers on 96-well plates were loaded with 2.5 μM DAF-FM and incubated for 45 minutes at 37° C. NO concentration was measured using a SpectraMax Microplate Reader (Molecular Devices, San Jose, Calif.) as described in the art (Chen, et al. (2020) FASEB J. 34(4):5838-5850).
as §2

[2] = test system: eNOS and CCR10 interaction with LAMP1; assay: eNOS internalization and degradation in HDMVECs stimulated with CCL28 (Co-IP with LAMP1, confocal microscopy); format: cell-based, human; details: HDMVECs
Description: as §1
Confocal Microscopy. For cellular immunostaining, confluent monolayers of cells grown on coverslips were prepared as described previously (Chen, et al. (2012) Mel. Biol. Cell 23(7):1388-1398). Fluorescent images were obtained using a Zeiss LSM 880 confocal microscope. The co-localization coefficient in specified regions of interest (ROI) were determined using Zeiss Zen software. Briefly, using the Overlay tool, the desired ROI was drawn along the cell edge and the values for the ROIs tabulated. The scatterplot and table were automatically adjusted to the pixel distribution for the selected ROI. The data from different treatment groups were collected and analyzed for statistical significance as described previously (Chen, et al. (2020) FASEB J. 34(4):5838-5850). […]
Since myristoylated 7 amino acid CCR10-binding domain (Myr-CBD7) peptide can block eNOS interaction with CCR10 and increase eNOS activity in HUVECs, it was assessed whether Myr-CBD7 can prevent eNOS internalization and degradation in HDMVECs following CCL28 stimulation. […]

B1: CCL28: human recombinant CCL28, the ligand for CCR10 (protein)
chain: ILPIASSCCTEVSHHISRRLLERVNMCRIQRADGDCDLAAVILHVKRRRICVSPHNHTVKQWMKVQAAKKNGKGNVCHRKKHHGKRNSNRAHQGKHETYGHKTPY
eNOS-CCR10 interaction (eNOS-CCR10 interaction): increased
time of maximum eNOS-CCR10 binding (eNOS-CCR10 interaction): 5 min
expression levels of β-catenin and Bcl-2 ([1]; stimulation of endothelial cells for 24 hours): enhanced
Phosphorylation of eNOS (Ser1177), p85 (Tyr458; PI3K), Src kinase (Tyr418), and ERK (T202/Y204; MAPK) ([1]; treatment for up to 60 minutes): significantly increased
Co-localization coefficient of CCR10 and eNOS (CCR10-eNOS interaction): 78%
NO production (HUVECs): observed
eNOS co-localization with EEA1 ([2]; 500 ng/ml for 90 minutes, preliminary analyses): more co-localization
eNOS and CCR10 association with LAMP1 (co-IP) ([2]; 3 hours treatment): associated with LAMP1
